Experimental findings from IntAct's records for PubMed 17237231 are described below.

B1: Macrophage scavenger receptor types I and II (Homo sapiens), P21757 (parent)
chain: MEQWDHFHNQQEDTDSCSESVKFDARSMTALLPPNPKNSPSLQEKLKSFKAALIALYLLVFAVLIPLIGIVAAQLLKWETKNCSVSSTNANDITQSLTGKGNDSEEEMRFQEVFMEHMSNMEKRIQHILDMEANLMDTEHFQNFSMTTDQRFNDILLQLSTLFSSVQGHGNAIDEISKSLISLNTTLLDLQLNIENLNGKIQENTFKQQEEISKLEERVYNVSAEIMAMKEEQVHLEQEIKGEVKVLNNITNDLRLKDWEHSQTLRNITLIQGPPGPPGEKGDRGPTGESGPRGFPGPIGPPGLKGDRGAIGFPGSRGLPGYAGRPGNSGPKGQKGEKGSGNTLTPFTKVRLVGGSGPHEGRVEILHSGQWGTICDDRWEVRVGQVVCRSLGYPGVQAVHKAAHFGQGTGPIWLNEVFCFGRESSIEECKIRQWGTRACSHSEDAGVTCTL
partner: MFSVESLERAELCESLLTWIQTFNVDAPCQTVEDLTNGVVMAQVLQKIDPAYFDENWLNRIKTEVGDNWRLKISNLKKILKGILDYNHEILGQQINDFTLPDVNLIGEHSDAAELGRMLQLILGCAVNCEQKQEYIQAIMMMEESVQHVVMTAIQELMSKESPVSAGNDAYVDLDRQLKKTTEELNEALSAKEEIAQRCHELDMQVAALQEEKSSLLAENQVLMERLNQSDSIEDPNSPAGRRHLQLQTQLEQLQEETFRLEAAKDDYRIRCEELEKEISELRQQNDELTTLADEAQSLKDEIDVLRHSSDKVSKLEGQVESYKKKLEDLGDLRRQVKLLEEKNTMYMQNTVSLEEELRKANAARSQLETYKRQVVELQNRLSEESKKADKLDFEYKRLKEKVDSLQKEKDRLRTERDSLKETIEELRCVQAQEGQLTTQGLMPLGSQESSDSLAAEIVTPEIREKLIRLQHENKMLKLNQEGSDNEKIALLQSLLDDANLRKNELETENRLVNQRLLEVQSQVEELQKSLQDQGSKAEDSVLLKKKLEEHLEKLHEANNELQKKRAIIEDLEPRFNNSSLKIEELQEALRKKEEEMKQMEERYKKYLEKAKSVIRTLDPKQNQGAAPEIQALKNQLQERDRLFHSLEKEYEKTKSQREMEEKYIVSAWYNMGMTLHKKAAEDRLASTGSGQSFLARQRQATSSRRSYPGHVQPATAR

This experiment covers variants of B1. Particulars: with hook3_human HOOK3, Q86VS8.
Take E12A;D13A;D15A: the “effect of a mutation on the interaction” value is recorded as “disrupting interaction”.
